Molecular target: U87MG
Assay: flow cytometry, cell binding; human U87MG cells

B1: NOD201M (Fc fusion)
chain: GCPRPRGDNPPLTCSQDSDCLAGCVCGPNGFCGEPRVPITQNPCPPLKECPPCAAPDLLGGPSVFIFPPKIKDVLMISLSPMVTCVVVDVSEDDPDVQISWFVNNVEVHTAQTQTHREDYNSTLRVVSALPIQHQDWMSGKEFKCKVNNRALPSPIEKTISKPRGPVRAPQVYVLPPPAEEMTKKEFSLTCMITGFLPAEIAVDWTSNGRTEQNYKNTATVLDSDGSYFMYSKLRVQKSTWERGSLFACSVVHEGLHNHLTTKTISRSLG
Kd: 0.7 nM

Source: patent US20170368138A1 (published 2017)
